The target of assay [1] is T1, anti-NP (4-hydroxy-3-nitrophenylacetyl) antibody clone 3B62 IgG1, afucosylated.
T1 construct: In the FcγRIIIA ELISA it stood as an immune complex with NP-BSA (10:1); also called 3B62 IgG1 G2; monomeric 3B62
The assay is described as follows: SPR, 1:1 Langmuir global kinetic fit, 256 to 16 nM in 2-fold steps. On the technique in general: Surface plasmon resonance follows binding to a sensor surface in real time, without labels.

Assay [2] has as its target T2, IgG1, G0 afucosylated glycoform (antibody not named).
T2 construct: also called GO
Nature of the assay: sandwich ELISA, IgG titrated.

A word on the Kd: it is the equilibrium constant for the complex coming apart. High values mean a looser complex, low ones a tighter complex. A word on the EC50 (read off the curve): it is the concentration that produces a half-maximal response.

B1: B7 (VHH)
VHH: QVQLQESGGGLVQAGGSLRLSCAASGGISRYKTMGWYRQAPGKEREFVAGITWGGSTYYADSVKGRFTISRDNAKNTVYLQMNSLKPEDTAVYYCSVDGGTYADPYHYYWGQGTQVTVSS
notes: also called clone B7; nanobody B7; not shown: His tag and AviTag of the pET26-b(+) construct
In assay [1], B1 gave a Kd of 3.76 µM. Also, the “EC50 (read off the curve)” value in assay [2] was about 0.4 µg/mL.
